Consider one substance from article PMC2175248.

In the test the target is myc–E4orf4 (adenovirus 2 (Ad2)). Briefly: co-IP.

“v-src (from UniProt P00524 1-526) (enzyme)” displayed a percent of v-src of the P2 fraction recovered in myc–E4orf4 immune complexes of less than 10%.
